The test addresses DD(E) fragment of fibrin. Nature of the test: affinity to DD(E) fragment of fibrin.

The values that follow come from patent US20070185311A1 (EPIX MEDICAL INC A DELAWARE, published 2007).

Starred links: 1 amine or outer side, 2 acyl side, 3 side chain; linkers in the order of their positions; H or OH if unused. Positions of bridges follow the written chain, without caps; N, C: chain ends. Non-standard residues stand in square brackets, D forms with d. No end group written: not given here. Phe(4-OMe) = COc1ccc(C[C@H](N[*:1])C(=O)[*:2])cc1; Bpa = N[C@@H](Cc1ccc(C(=O)c2ccccc2)cc1)C(=O)O; Tyr(3-Cl) = N[C@@H](Cc1ccc(O)c(Cl)c1)C(=O)O; Bip = N[C@@H](Cc1ccc(-c2ccccc2)cc1)C(=O)O; Tyr(3-I) = N[C@@H](Cc1ccc(O)c(I)c1)C(=O)O; Hyp = O=C(O)[C@@H]1C[C@@H](O)CN1; hPhe = N[C@@H](CCc1ccccc1)C(=O)O; 2Pal = N[C@@H](Cc1ccccn1)C(=O)O; NDecylGly = CCCCCCCCCCNCC(=O)O; Gu = guanosine base unit; Dht = not defined here; Taz = not defined here; Inp = O=C(O)C1CCNCC1

B1: Bip-H-C-Hyp-Y-D-L-C-H-I-L (peptide)
peptide: [Bip]HC[Hyp]YDLCHIL
modifications: disulfide 3-8 (inferred)
With B1, the Kd (in general, the concentration at which binding is half-saturated) was under 500 nM.

B2: F-H-C-Hyp-Y(3-I)-D-L-C-2Pal-I (peptide)
peptide: FHC[Hyp][Tyr(3-I)]DLC[2Pal]I
modifications: disulfide 3-8 (inferred)
B2 gave a Kd of under 500 nM.

B3: F-H-C-Hyp-Y-D-L-C-H-I-L (peptide)
peptide: FHC[Hyp]YDLCHIL
modifications: disulfide 3-8 (inferred)
The molecule B3 came in with a Kd of under 500 nM.

B4: F(4-OMe)-H(Bzl)-C-Hyp-Y(3-Cl)-D-L-C-H-Bpa (peptide)
peptide: [Phe(4-OMe)][His(Bzl)]C[Hyp][Tyr(3-Cl)]DLCH[Bpa]
modifications: disulfide 3-8 (inferred)
The molecule B4 returned a Kd of under 100 nM.

B5: L-P-C-D-Y-Y-G-T-C-n(Decyl)G-D (peptide)
peptide: LPCDYYGTC[NDecylGly]D
modifications: not fully specified; cysteine pairing not given here
The molecule B5 returned a Kd of under 10000 nM.

B6: F-H-C-Hyp-Y(3-I)-D-L-C-Dht-I (peptide)
peptide: FHC[Hyp][Tyr(3-I)]DLC[Dht]I
modifications: disulfide 3-8 (inferred); reading uncertain; also: printed as F-H-C-Hyp-Y(3-I)-D-L-C-Dht-I
For B6, the Kd is under 500 nM.

B7: F-E-C-Hyp-Y(3-Cl)-G-L-C-W-I-Q (peptide)
peptide: FEC[Hyp][Tyr(3-Cl)]GLCWIQ
modifications: disulfide 3-8 (inferred)
The molecule B7 displayed a Kd of under 500 nM.

B8: L-P-C-D-Y-Y-G-T-C-MeL-Inp (peptide)
peptide: LPCDYYGTC[MeL][Inp]
modifications: cysteine pairing not given here
Take B8: the Kd is under 10000 nM.

B9: Gu-H-C-Hyp-Y(3-I)-D-L-C-H-I (peptide)
peptide: [Gu]HC[Hyp][Tyr(3-I)]DLCHI
modifications: disulfide 3-8 (inferred)
The molecule B9 yielded a Kd of under 500 nM.

B10: L-P-C-D-Y-Y-G-T-C-n(Decyl)G-dD (peptide)
peptide: LPCDYYGTC[NDecylGly][dD]
modifications: not fully specified; cysteine pairing not given here
On to B10, for which the Kd was under 10000 nM.

B11: Hfe-H-C-Hyp-Y-D-L-C-H-I-L (peptide)
peptide: [hPhe]HC[Hyp]YDLCHIL
modifications: disulfide 3-8 (inferred)
In turn, B11 showed a Kd of under 500 nM.

B12: F-H-C-Hyp-Y(3-I)-D-L-C-Taz-I (peptide)
peptide: FHC[Hyp][Tyr(3-I)]DLC[Taz]I
modifications: disulfide 3-8 (inferred); reading uncertain; also: printed as F-H-C-Hyp-Y(3-I)-D-L-C-Taz-I
B12 came in with a Kd of under 500 nM.
